Substrate in data set [1]: NC[C@H](O)c1ccc(O)c(O)c1
As to the kind of experiment: KM determination by method of initial rates, PNMT. The format is biochemical, human. Particulars: other: PNMT; SAM 100 μM; fit to substrate inhibition model; pH 8.0.

Substrate in data set [2]: C[S+](CC[C@H](N)C(=O)[O-])C[C@H]1O[C@@H](n2cnc3c(N)ncnc32)[C@H](O)[C@@H]1O
In words: KM determination by method of initial rates, PNMT. The format is biochemical, human. Particulars: other: PNMT; norepinephrine 100 μM; pH 8.0.

Substrate in data set [3]: C[S+](CC[C@H](N)C(=O)[O-])C[C@H]1O[C@@H](n2cnc3c(N)ncnc32)[C@H](O)[C@@H]1O
In words: KM determination by method of initial rates, GNMT. The format is biochemical, human. The following applies: other: GNMT; substrate 100 μM; MTase-Glo readout; pH 8.0.

Substrate in data set [4]: NC(=O)c1cccnc1
In words: purified protein, by the assay type. Particulars: other: NNMT; SAM 100 μM; MTase-Glo readout; pH 8.0.

Substrate in data set [5]: C[S+](CC[C@H](N)C(=O)[O-])C[C@H]1O[C@@H](n2cnc3c(N)ncnc32)[C@H](O)[C@@H]1O
As to the kind of experiment: KM determination by method of initial rates, NNMT. The format is biochemical, human. The following applies: other: NNMT; substrate 100 μM; MTase-Glo readout; pH 8.0.

Substrate in data set [6]: C[S+](CC[C@H](N)C(=O)[O-])C[C@H]1O[C@@H](n2cnc3c(N)ncnc32)[C@H](O)[C@@H]1O
In words: KM determination by method of initial rates, HNMT. The format is biochemical, human. Particulars: other: HNMT; substrate 100 μM; MTase-Glo readout; pH 8.0.

Substrate in data set [7]: NCCc1c[nH]cn1
As to the kind of experiment: purified protein, by the assay type. Particulars: other: HNMT; SAM 100 μM; MTase-Glo readout; pH 8.0.

Substrate in data set [8]: NC[C@H](O)c1ccc(O)c(O)c1
As to the kind of experiment: KM determination by method of initial rates, COMT. The format is biochemical, human. The following applies: other: COMT; SAM 100 μM; MTase-Glo readout; pH 8.0.

Substrate in data set [9]: C[S+](CC[C@H](N)C(=O)[O-])C[C@H]1O[C@@H](n2cnc3c(N)ncnc32)[C@H](O)[C@@H]1O
In words: KM determination by method of initial rates, COMT. The format is biochemical, human. Particulars: other: COMT; substrate 100 μM; MTase-Glo readout; pH 8.0.

The Km is the substrate concentration at which the rate is half of its maximum.

B1: PNMT (Homo sapiens) (protein)
chain: MSGADRSPNAGAAPDSAPGQAAVASAYQRFEPRAYLRNNYAPPRGDLCNPNGVGPWKLRCLAQTFATGEVSGRTLIDIGSGPTVYQLLSACSHFEDITMTDFLEVNRQELGRWLQEEPGAFNWSMYSQHACLIEGKGECWQDKERQLRARVKRVLPIDVHQPQPLGAGSPAPLPADALVSAFCLEAVSPDLASFQRALDHITTLLRPGGHLLLIGALEESWYLAGEARLTVVPVSEEEVREALVRSGYKVRDLRTYIMPAHLQTGVDDVKGVFFAWAQKVGL
Regarding B1, the Km in data set [1] was 16.2 ± 4.3 µM; in data set [2], 3.6 ± 0.6 µM.

B2: GNMT (Homo sapiens) (protein)
chain: MVDSVYRTRSLGVAAEGLPDQYADGEAARVWQLYIGDTRSRTAEYKAWLLGLLRQHGCQRVLDVACGTGVDSIMLVEEGFSVTSVDASDKMLKYALKERWNRRHEPAFDKWVIEEANWMTLDKDVPQSAEGGFDAVICLGNSFAHLPDCKGDQSEHRLALKNIASMVRAGGLLVIDHRNYDHILSTGCAPPGKNIYYKSDLTKDVTTSVLIVNNKAHMVTLDYTVQVPGAGQDGSPGLSKFRLSYYPHCLASFTELLQAAFGGKCQHSVLGDFKPYKPGQTYIPCYFIHVLKRTD
Consider B2, for which, in data set [3], the Km is 12.1 ± 3.6 µM.

B3: NNMT (Homo sapiens) (protein)
chain: MESGFTSKDTYLSHFNPRDYLEKYYKFGSRHSAESQILKHLLKNLFKIFCLDGVKGDLLIDIGSGPTIYQLLSACESFKEIVVTDYSDQNLQELEKWLKKEPEAFDWSPVVTYVCDLEGNRVKGPEKEEKLRQAVKQVLKCDVTQSQPLGAVPLPPADCVLSTLCLDAACPDLPTYCRALRNLGSLLKPGGFLVIMDALKSSYYMIGEQKFSSLPLGREAVEAAVKEAGYTIEWFEVISQSYSSTMANNEGLFSLVARKLSRPL
As to B3, the values for the Km in [4] and in data set [5] were 3.8 ± 0.5 µM and 11.9 ± 5.7 µM, respectively.

B4: HNMT (Homo sapiens) (protein)
chain: MASSMRSLFSDHGKYVESFRRFLNHSTEHQCMQEFMDKKLPGIIGRIGDTKSEIKILSIGGGAGEIDLQILSKVQAQYPGVCINNEVVEPSAEQIAKYKELVAKTSNLENVKFAWHKETSSEYQSRMLEKKELQKWDFIHMIQMLYYVKDIPATLKFFHSLLGTNAKMLIIVVSGSSGWDKLWKKYGSRFPQDDLCQYITSDDLTQMLDNLGLKYECYDLLSTMDISDCFIDGNENGDLLWDFLTETCNFNATAPPDLRAELGKDLQEPEFSAKKEGKVLFNNTLSFIVIEA
For B4, the Km worked out at 9.3 ± 2.1 µM in data set [6] and 5.3 ± 2.1 µM in data set [7].

B5: COMT (Homo sapiens) (protein)
chain: MPEAPPLLLAAVLLGLVLLVVLLLLLRHWGWGLCLIGWNEFILQPIHNLLMGDTKEQRILNHVLQHAEPGNAQSVLEAIDTYCEQKEWAMNVGDKKGKIVDAVIQEHQPSVLLELGAYCGYSAVRMARLLSPGARLITIEINPDCAAITQRMVDFAGVKDKVTLVVGASQDIIPQLKKKYDVDTLDMVFLDHWKDRYLPDTLLLEECGLLRKGTVLLADNVICPGAPDFLAHVRGSSCFECTHYQSFLEYREVVDGLEKAIYKGPGSEAGP
Consider B5, for which the Km in data set [8] was 13.7 ± 2.2 µM; in [9], 14.5 ± 1.8 µM.

(Values after paper PMC10983791.)
